Data: patent publication US20250011422A1

How the values were obtained:
[1] = biological target: human Siglec-6 on the cell surface (U937, MEC1-002, MEC1-hS6, primary CLL cells) (human) (UniProt O43699); assay: quantitative flow cytometry with bead calibration standard, cell line MEC1-002
[2] = biological target: human Siglec-6 on the cell surface (U937, MEC1-002, MEC1-hS6, primary CLL cells) (human) (UniProt O43699); assay: quantitative flow cytometry, primary CLL cells (live, CD20+ CD5+), CLL patient 11944
[3] = biological target: human Siglec-6 on the cell surface (U937, MEC1-002, MEC1-hS6, primary CLL cells) (human) (UniProt O43699); assay: quantitative flow cytometry, primary CLL cells (live, CD20+ CD5+), CLL patient 3071
[4] = biological target: human Siglec-6 on the cell surface (U937, MEC1-002, MEC1-hS6, primary CLL cells) (human) (UniProt O43699); assay: quantitative flow cytometry, primary CLL cells (live, CD20+ CD5+), CLL patient 2691
[5] = biological target: human Siglec-6 on the cell surface (U937, MEC1-002, MEC1-hS6, primary CLL cells) (human) (UniProt O43699); assay: quantitative flow cytometry, primary CLL cells (live, CD20+ CD5+), CLL patient 4973
[6] = biological target: human Siglec-6 on the cell surface (U937, MEC1-002, MEC1-hS6, primary CLL cells) (human) (UniProt O43699); assay: quantitative flow cytometry, primary CLL cells (live, CD20+ CD5+), CLL patient 8242
[7] = biological target: human Siglec-6 on the cell surface (U937, MEC1-002, MEC1-hS6, primary CLL cells) (human) (UniProt O43699); assay: quantitative flow cytometry, primary CLL cells (live, CD20+ CD5+), CLL patient 4705

human Siglec-6 on the cell surface (U937, MEC1-002, MEC1-hS6, primary CLL cells) (human), sequence (O43699 27-453): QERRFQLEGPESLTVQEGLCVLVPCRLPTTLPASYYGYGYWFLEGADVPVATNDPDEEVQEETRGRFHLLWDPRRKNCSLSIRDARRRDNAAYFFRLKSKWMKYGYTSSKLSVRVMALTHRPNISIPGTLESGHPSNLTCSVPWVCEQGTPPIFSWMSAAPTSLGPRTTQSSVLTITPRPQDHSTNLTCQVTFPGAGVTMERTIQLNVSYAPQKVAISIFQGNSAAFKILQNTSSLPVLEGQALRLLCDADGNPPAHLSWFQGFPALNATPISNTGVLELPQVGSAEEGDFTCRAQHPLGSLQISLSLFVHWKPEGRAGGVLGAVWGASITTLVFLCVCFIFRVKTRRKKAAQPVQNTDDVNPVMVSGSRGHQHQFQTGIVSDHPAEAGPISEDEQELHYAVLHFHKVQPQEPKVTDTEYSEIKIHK

Siglec-6 (ABC-isotype) [1]: 1450 ABC
Siglec-6 (ABC-isotype) [2]: 3580 ABC
Siglec-6 (ABC-isotype) [3]: 1540 ABC
Siglec-6 (ABC-isotype) [4]: 6040 ABC
Siglec-6 (ABC-isotype) [5]: 3670 ABC
Siglec-6 (ABC-isotype) [6]: 843 ABC
Siglec-6 (ABC-isotype) [7]: 2430 ABC
Substance: commercial mouse anti-human Siglec-6 mAb clone 767329 (R&D Systems) (antibody)
